We go through ten molecules from US20210040232A1 (Regeneron, published 2021).

Assay [1] concerns the target T1, recombinant hCTLA-4-mFc (human CTLA-4 extracellular domain with a C-terminal Fc portion of mouse IgG2a) (human).
T1 construct: also called dimeric CTLA-4 protein
The assay is described as follows: competition ELISA, 400 pM hCTLA-4-mFc on plate-coated hB7-2-hIgG1-6His.

Assay [2] deals with T2, soluble Macaca fascicularis CTLA-4 expressed with a C-terminal myc-myc-polyhistidine tag (Macaca fascicularis).
T2 construct: soluble protein; also called mf CTLA-4.mmh; mfCTLA4.mmh
T2 chain: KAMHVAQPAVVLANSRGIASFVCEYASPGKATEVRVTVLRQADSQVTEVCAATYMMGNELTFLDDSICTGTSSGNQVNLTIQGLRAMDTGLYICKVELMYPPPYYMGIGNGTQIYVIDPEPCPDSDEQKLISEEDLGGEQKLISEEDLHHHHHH
The assay is described as follows: SPR, mAb capture, 25 C. A general note: In SPR one partner is held on a chip, and binding of the other changes the refractive index at the surface.

For assay [3], the target named is T3, soluble human CTLA-4 expressed with a C-terminal myc-myc-polyhistidine tag (human).
T3 construct: soluble protein; also called hCTLA-4.mmh; hCTLA4.mmh
The assay is described as follows: SPR, mAb capture, 25 C.

In assay [4] the target is T4, human CTLA-4 (amino acids M1-N223) on stably transfected VI-fibroblast cells (human, UniProt P16410 36-223).
T4 construct: also called VI-fibroblast/hCTLA-4
T4 sequence (P16410 36-223 limits assumed): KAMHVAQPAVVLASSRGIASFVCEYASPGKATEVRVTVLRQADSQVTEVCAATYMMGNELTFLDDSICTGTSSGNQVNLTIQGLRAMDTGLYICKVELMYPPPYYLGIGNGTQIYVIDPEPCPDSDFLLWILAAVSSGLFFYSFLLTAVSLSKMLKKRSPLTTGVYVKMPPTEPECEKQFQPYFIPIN
The assay is described as follows: ECL cell binding, VI-fibroblast/hCTLA-4 cells.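 Also: antibodies bound to the cells on carbon electrode plates, detected via SULFO-TAG anti-IgG secondary (1 h, RT), electrochemiluminescence read as RLU over a concentration range.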

In assay [5] the target is T1, recombinant hCTLA-4-mFc (human CTLA-4 …). The assay is described as follows: competition ELISA, 200 pM hCTLA-4-mFc on plate-coated hB7-1-hIgG1-6His. (An ELISA detects its analyte on a solid surface through an enzyme-linked reagent.)

The term IC50 denotes the concentration needed to halve the response being measured. In general, Kd refers to the concentration at which binding is half-saturated. A higher Kd goes with lower affinity. The term koff denotes a measure of how fast the partners let go of each other. A high value points to a short-lived complex. What is called kon is the second-order rate constant of association. Read a high kon as fast association. By EC50 is commonly meant the concentration giving half of the maximal effect.

T1 sequence (chain, as listed by the source limits assumed): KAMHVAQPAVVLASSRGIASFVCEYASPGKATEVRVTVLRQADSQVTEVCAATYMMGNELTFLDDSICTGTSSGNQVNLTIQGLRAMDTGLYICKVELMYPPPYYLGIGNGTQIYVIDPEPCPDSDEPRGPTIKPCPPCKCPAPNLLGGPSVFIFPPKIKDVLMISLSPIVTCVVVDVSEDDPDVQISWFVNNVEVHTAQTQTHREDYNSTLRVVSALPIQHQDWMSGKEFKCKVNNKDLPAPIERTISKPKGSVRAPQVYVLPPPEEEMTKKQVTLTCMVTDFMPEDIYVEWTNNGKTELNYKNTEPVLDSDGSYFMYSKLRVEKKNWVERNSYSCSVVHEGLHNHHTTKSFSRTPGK

B1: H1H19274P (antibody, human IgG1, V domains shown)
VH: QVQLQESGPGLVKPSETLSLTCTVSGGSINSYYWTWIRQPPGKGLEWIGYVYYSGSTTYNPSLKSRVTISVDTSKNQFFLNLNSVTAAETAVYYCARGTLGYYGMDVWGQGTTVTVSS
VL: EIVLTQSPGTLSLSPGERATLSCRASQSFSNNYLAWYQQKPGQAPRLLIYGTSIRATGIPDRFSGSGSGTDFTLAISRLEPEDFAVYYCQQYGRSPLTFGGGTKVEIK
On to B1, for which, in assay [1], the “% Blockade” value stood at 100% and the IC50 is 0.25 nM. In assay [2], this molecule returned a Kd of 0.887 nM, an off-rate (koff) of 0.000463 s⁻¹, a kon of 522000 M⁻¹ s⁻¹ and a t1/2 of 25 min. In assay [3], this molecule had a Kd of 1.43 nM, a koff of 0.00076 s⁻¹, a kon of 530000 M⁻¹ s⁻¹ and a t1/2 of 15.2 min. Besides, in assay [4], the EC50 stood at 0.39 nM and the “ratio of RLU signal to parental VI-fibroblast at 0.4 nM Ab” value (shortened to “ratio of RLU signal”) is 18 ratio. Moreover, in assay [5], the “% Blockade” value was 99% and the half-inhibitory concentration (IC50) came out at 0.13 nM.

B2: H1H19314P2 (antibody, human IgG1, V domains shown)
VH: QVQLVQSGAEVKKPGASVKVSCKASGYTLSSYGISWVRQAPGQGLEWMGWISAYNGNTNYAQKLQGRLTMTTDTSTSTAYMELRSLRSDDTAVYYCSRDGPFKISFFGMDVWGQGTTVTVSS
VL: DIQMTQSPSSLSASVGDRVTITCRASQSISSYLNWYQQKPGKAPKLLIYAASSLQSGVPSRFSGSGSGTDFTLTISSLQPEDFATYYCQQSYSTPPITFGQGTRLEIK
Regarding B2, the “% Blockade” value in assay [1] was determined as 7%. For the same molecule, in assay [2], binding was characterised by a dissociation constant (Kd) of 8.57 nM, the koff stood at 0.000913 s⁻¹, the kon is 107000 M⁻¹ s⁻¹ and the t1/2 came out at 12.6 min. In assay [3], the Kd came out at 9.87 nM, the koff came out at 0.00113 s⁻¹, the kon was 115000 M⁻¹ s⁻¹ and the t1/2 stood at 10.2 min. Also, in assay [4], the 50% effective concentration (EC50) stood at 3.4 nM and the “ratio of RLU signal” value amounted to 8 ratio. For the same molecule, the “% Blockade” value in assay [5] is 0%.

B3: H1H19264P (antibody, human IgG1, V domains shown)
VH: QVQLVQSGAEVKKPGASVKVSCKASDYTFTSYGISWVRQAPGQGLEWMGWISVYNGNINYAQKFKGRVTMTTDTSTSTAYMELRSLRSDDMAVYYCARVTQFGMDVWGQGTTVTVSS
VL: DIQMTQSPSSLSASVGDRVTITCRASQSISSNLNWYQQNPGKAPKLLIYTTSSLQGGVPSRFSGSGSGTDFTLTISSLQPEDFATYYCQQSFRTPFTFGPGTKVDIK
Take B3: in assay [1], the “% Blockade” value stood at 43%. Also, in assay [2], binding was put at a Kd of 20.3 nM, the koff was found to be 0.000994 s⁻¹, the kon was 49000 M⁻¹ s⁻¹ and the t1/2 came to 11.6 min. Besides, in assay [3], the Kd amounted to 12.1 nM, the koff came out at 0.000731 s⁻¹, the kon amounted to 60400 M⁻¹ s⁻¹ and the t1/2 stood at 15.8 min. The “% Blockade” value in assay [5] is 8%.

B4: H1H20375N (antibody, human IgG1, V domains shown)
VH: QLQLQESGPGLVKPSETLSFTCTVSGGSISSNYYYWGWVRQSPGKGLEWIGSIYHTGNAYDNPSLKSRVTISVDTSKNQFSLNLNSVTAADTAIYYCARHHSSSSWWYFDVWGRGTLVIVSS
VL: EIVLTQSPDTLSLSPGERATLSCRASQTVSNSHLAWYQQKPGQAPRLLIYGTSSRATGIPDRFSGSGSGTDFSLTIIRLEPDDFAVYFCQQHESSPPTFGQGAKLEIK
notes: here with human IgG1 Fc (H1H)
For B4, the “% Blockade” value in assay [1] is 29%. Further, in assay [3], the Kd is 66.5 nM, the koff is 0.00279 s⁻¹, the kon was found to be 41900 M⁻¹ s⁻¹ and the t1/2 was 4.1 min. Also, the “% Blockade” value in assay [5] stood at 13%.

B5: H1H20386N (antibody, human IgG1, V domains shown)
VH: QVQLVESGGGVVQPGRSLRLSCAASGFTVNRYGIHWVRQAPGKGLEWVAVTWYDGRNKYFADSVKGRFSFSRDSSTNTLYLQMNSLRAEDTAVYYCARGGLFGYFDYWGQGTLVTVSS
VL: EIVLTQSPDTLSLSPGERATLSCRASQSVAGSYLAWYQQKPGQAPRLLIYGASSRATGIPDRFSGSGSGTDFTLTISRLEPEDFAVYYCQQYGTSPWTFGQGTKVEIT
notes: here with human IgG1 Fc (H1H)
On to B5, for which, in assay [1], the “% Blockade” value was determined as 96% and the IC50 is 7.7 nM. In assay [3], this molecule had a Kd of 10.5 nM, a koff of 0.00194 s⁻¹, a kon of 185000 M⁻¹ s⁻¹ and a t1/2 of 6 min. In addition, in assay [5], the “% Blockade” value amounted to 94% and the IC50 was 18 nM.

B6: H1H19307P (antibody, human IgG1, V domains shown)
VH: EVQLVESGGGLVQPGGSLRLACAASGFTFSDYYMDWVRQVPGKGLEWVGRSRDKANSFTTEYVASVKGRFTISREDSKNSVYLQMNSLKTEDTAVYYCARTNYDFSLDVWGQGTTVTVSS
VL: DIQMTQSPSSLSASVGDRVTITCRASQDINNYLAWFQQKPGNAPKSLIYAASSLQSGVPSKFSGSGSGTDFTLTISSLQPEDFATYYCQQYSTYPITFGQGTRLEIK
As to B6, in assay [1], the “% Blockade” value is 99% and the IC50 came out at 0.29 nM. Also, in assay [2], the Kd is 1.4 nM, the koff amounted to 0.000292 s⁻¹, the kon was found to be 209000 M⁻¹ s⁻¹ and the t1/2 is 39.5 min. Further, in assay [3], the Kd was found to be 1.31 nM, the koff amounted to 0.000284 s⁻¹, the kon was 217000 M⁻¹ s⁻¹ and the t1/2 is 40.6 min. In addition, in assay [4], the response was half-maximal at 3.7 nM (EC50) and the “ratio of RLU signal” value was 7 ratio. In addition, in assay [5], the “% Blockade” value amounted to 99% and the IC50 is 0.18 nM.

B7: H1H19278P (antibody, human IgG1, V domains shown)
VH: QVQLVESGGGVVQPGRSLRLSCAASGFTFSSYGMNWVRQAPGKGLEWVAVTWYDGSNKHYADSVKGRFTISRDNSKNTLYLQMYSLRAEDTAMYYCVRGGHLGAFDIWGQGTMVTVSS
VL: EIVLTQSPGTLSLSPGERATLSCRASQSVSSYLAWYQQKPGQAPRLLIYGASSRATGIPDRFSGGGSGTDFTLTISRLEPEDFAVYYCQQYGSSPFTFGPGTKVDIK
On to B7, for which, in assay [1], the “% Blockade” value was 100% and the IC50 is 0.54 nM. Further, in assay [2], the Kd amounted to 6.11 nM, the koff turned out to be 0.00101 s⁻¹, the kon amounted to 166000 M⁻¹ s⁻¹ and the t1/2 stood at 11.4 min. In assay [3], this molecule returned a Kd of 2.25 nM, a koff of 0.000402 s⁻¹, a kon of 179000 M⁻¹ s⁻¹ and a t1/2 of 28.8 min. Moreover, in assay [4], the response was half-maximal at 0.22 nM (EC50) and the “ratio of RLU signal” value amounted to 19 ratio. Besides, in assay [5], the “% Blockade” value worked out at 99% and the IC50 came to 0.32 nM.

B8: H1H19312P (antibody, human IgG1, V domains shown)
VH: QVQLQESGPGLVKPSETLSLTCTVSGGSISSYHWSWIRQPLGKGLEWIGYIYYSGSTNYNPSLKSRVTISVDTSKNQFSLKLSSVTAADTAVYYCARGGSSIWPFDYWGQGTLVTVSS
VL: DIQMTQSPSTLSASVGDRVTITCRASQSISSWLAWYQQKSGKAPKLLISKASTLESGVPSRFSGSGSGTEFTLTISSLQPDDFATYYCQQYNIYSWTFGQGTKVEIK
Turning to B8, in assay [1], the “% Blockade” value amounted to 99% and the IC50 was determined as 0.51 nM. In assay [2], the Kd amounted to 2.28 nM, the koff was 0.00076 s⁻¹, the kon stood at 333000 M⁻¹ s⁻¹ and the t1/2 came out at 15.2 min. Also, in assay [3], the Kd is 3.29 nM, the koff is 0.00105 s⁻¹, the kon was found to be 320000 M⁻¹ s⁻¹ and the t1/2 came to 11 min. In addition, in assay [4], a half-maximal effect (EC50) was put at 0.7 nM and the “ratio of RLU signal” value is 14 ratio. In addition, in assay [5], the “% Blockade” value worked out at 97% and the IC50 was 0.2 nM.

B9: H1H19279P (antibody, human IgG1, V domains shown)
VH: QVQLVQSGAEVKKPGASVKVSCKASGYTFTDYYIHWVRQAPGQGLEWMGWINPNNGVSNYAQKFQGRVTMTRDTSISTAYMDLIRLRSDDTAVYYCARERASWDYNGVDVWGQGTTVTVSS
VL: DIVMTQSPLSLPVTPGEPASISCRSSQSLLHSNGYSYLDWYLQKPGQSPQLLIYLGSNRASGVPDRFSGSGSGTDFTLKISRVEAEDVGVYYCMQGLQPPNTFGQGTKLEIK
Regarding B9, in assay [1], the “% Blockade” value was 100% and the IC50 was 0.22 nM. Further, in assay [2], binding was put at a Kd of 0.763 nM, the koff was found to be 0.000259 s⁻¹, the kon came to 340000 M⁻¹ s⁻¹ and the t1/2 is 44.6 min. Besides, in assay [3], the Kd is 0.752 nM, the koff was 0.000261 s⁻¹, the kon is 346000 M⁻¹ s⁻¹ and the t1/2 stood at 44.3 min. Moreover, in assay [4], the EC50 was found to be 0.24 nM and the “ratio of RLU signal” value was found to be 18 ratio. Also, in assay [5], the “% Blockade” value was determined as 97% and the IC50 was found to be 0.21 nM.

B10: H1H19305P (antibody, human IgG1, V domains shown)
VH: QVQLQESGPGLVKPSQTLSLTCTVSGGSITSGGYYWSWIRQHPGKGLEWIGYIFYSGITNYNPSLKSRVTISVDTSKNQFSLKLTSVTAADTAVYYCATYNSLRLYYGMDVWGQGTTVTVSS
VL: DVVMTQSPLSLPVILGQPASISCRSSQSLVYGDGNTYLNWFQQRPGQSPRRLIYKVSNRDSGVPDRFSGSGSGTDFTLKISRVEAEDVGVYYCMQSTHWPLTFGGGTKVEIK
For the molecule B10, in assay [1], the “% Blockade” value is 99% and the IC50 is 0.36 nM. In assay [3], this molecule gave a Kd of 4.19 nM and a t1/2 of 9.5 min. In assay [4], the EC50 came out at 0.84 nM. Moreover, in assay [5], the “% Blockade” value was 98% and the IC50 came to 0.19 nM.
